# Results reported in the supplement of paper PMC11908140.
# B1: library; numbered along this chain (parent)
# chain: MRKPRAAVGSGHRKQAASQEGRQKHAKNNSQAKPSACDGLARQPEEVVLQASVSSYHLFRDVAEVTAFRGSLLSWYDQEKRDLPWRRRAEDEMDLDRRAYAVWVSEVMLQQTQVATVINYYTGWMQKWPTLQDLASASLEEVNQLWAGLGYYSRGRRLQEGARKVVEELGGHMPRTAETLQQLLPGVGRYTAGAIASIAFGQATGVVDGNVARVLCRVRAIGADPSSTLVSQQLWGLAQQLVDPARPGDFNQAAMELGATVCTPQRPLCSQCPVESLCRARQRVEQEQLLASGSLSGSPDVEECAPNTGQCHLCLPPSEPWDQTLGVVNFPRKASRKPPREESSATCVLEQPGALGAQILLVQRPNSGLLAGLWEFPSVTWEPSEQLQRKALLQELQRWAGPLPATHLRHLGEVVHTFSHIKLTYQVYGLALEGQTPVTTVPPGARWLTQEEFHTAAVSTAMKKVFRVYQGQQPGTCMGSKRSQVSSPCSRKKPRMGQQVLDNFFRSHISTDAHSLNSAAQ
# Variants of: B1
# Test: 8OG:A repair function score (normalized; synonymous = 0, nonsense = -1) (normalized log-likelihood score); higher = more repair activity (WT-like)
# Conditions: with 8OG:A DNA repair reporter (GFP) in HEK-293 MUTYH KO cells
# Method: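 Saturation mutagenesis (NNN codon scan) of the MUTYH cDNA (521-aa nuclear isoform NM_001048174.1 / NP_001041639), stably expressed under doxycycline induction in HEK-293 MUTYH knockout cells. Cells were co-transfected with an 8OG:A-bearing GFP repair reporter plus mCherry and sorted 72 h later into GFP+ and GFP− bins, three replicates per tile. The Rosace log2 enrichment (GFP+ vs GFP−) was converted per tile to a normalized function score with synonymous variants centered at 0 and nonsense variants (codons 1-471) at -1; low-abundance variants were removed.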
row,Variant,8OG:A repair function score
1,L349C,-0.018
2,K337T,-0.131
3,E64G,-0.0592
4,G188F,-1.06
5,G401L,-0.214
6,Y428L,-0.828
7,S71C,-0.00534
8,T476I,-0.074
9,V166W,0.0741
10,R175H,-0.116
11,Q239H,0.289
12,L315D,-0.206
13,A357C,0.0134
14,R491A,0.00371
15,K333L,-0.227
16,L72R,-1.65
17,V441I,-0.0341
18,I195P,-1.04
19,A391G,-0.201
20,S298H,0.0283
21,P129T,-0.491
22,R97K,-0.0457
23,G444I,-0.373
24,G479F,-0.00391

row,Variant,8OG:A repair function score
1,A220S,-0.411
2,A99E,-1.34
3,Q499L,0.00129
4,W124P,-0.593
5,R332F,-0.0556
6,Y121P,-1.26
7,T263K,-0.017
8,L73N,-0.718
9,G171P,-1.16
10,Y469I,-0.259
11,G205D,-0.933
12,E285L,-0.000221
13,F505M,-0.0487
14,P474V,0.00398
15,S276D,0.00885
16,E92N,-0.0998
17,G150W,-1.09
18,D224R,-0.978
19,S55M,-0.0231
20,Q282A,-0.0281
21,L109Q,-0.022
22,G429S,-0.131
23,R446A,-0.143
24,H514F,-0.0319

row,Variant,8OG:A repair function score
1,R340M,-0.107
2,N143K,-0.343
3,L184S,-0.911
4,L183F,-0.0771
5,A254V,0.0529
6,P377R,-1.04
7,Q473D,-0.0165
8,D96Q,-0.0411
9,Y120W,-0.465
10,A259R,-0.0545
11,T263S,-0.0723
12,Q240P,-1
13,R86M,-1.93
14,A405G,-0.0383
15,Q426N,-0.05
16,T440Q,-0.0653
17,A305F,-0.0551
18,G161M,-0.776
19,H312V,0.078
20,T112N,-0.879
21,A192S,-0.166
22,G429C,0.227
23,A192F,-1.12
24,H416T,0.0616

row,Variant,8OG:A repair function score
1,Q282I,-0.0327
2,P247M,-0.978
3,N143L,-0.0917
4,L40V,0.0896
5,T460E,-0.212
6,G161F,-1.03
7,D249Y,-0.608
8,I118E,-0.0341
9,E64D,-0.0139
10,W321E,-0.0643
11,L183A,-0.0103
12,T116M,-0.441
13,P267Q,-0.679
14,C216I,-0.57
15,L411G,-0.531
16,G248P,-0.995
17,G429M,-0.288
18,E303D,-0.0577
19,K3E,-0.174
20,G186I,-1.23
21,T449N,-0.203
22,R409K,-0.145
23,G205Y,-0.873
24,L277Q,-0.0714

row,Variant,8OG:A repair function score
1,P383C,-0.0431
2,G293T,-0.0505
3,L169T,-0.186
4,V284D,-0.0734
5,I421E,-0.385
6,G434P,-0.0275
7,D502W,-0.0396
8,G401P,0.0452
9,Q323N,0.061
10,L109M,-0.105
11,S344Q,0.019
12,V166D,-0.293
13,T406Q,-0.294
14,D96S,-0.15
15,S74N,-0.0112
16,A457E,-0.495
17,A223R,0.032
18,L40C,-0.0146
19,S343W,-0.0714
20,Q473W,0.0181
21,V230W,-0.571
22,T476V,-0.0294
23,E319W,-0.0166
24,R491C,-0.013

row,Variant,8OG:A repair function score
1,S105F,-1.43
2,D300A,-0.149
3,N210W,-1.01
4,W75E,-1.57
5,T424E,-0.45
6,S515V,0.00837
7,T260C,-0.129
8,S226C,-0.132
9,Q310S,-0.0462
10,R189H,-0.228
11,A354R,-0.0437
12,K127E,-0.0486
13,D77S,-0.0758
14,S292A,-0.0285
15,H416R,-0.158
16,T476A,-0.0442
17,T66D,0.00573
18,S138R,0.0347
19,A254F,0.057
20,A354V,0.0356
21,A371Q,-0.374
22,M255H,-1.03
23,Q265L,-0.0663
24,P402T,-0.26

row,Variant,8OG:A repair function score
1,R409V,0.0575
2,T440A,-0.131
3,C311W,-0.459
4,D300R,-0.291
5,D96G,-0.0459
6,Q286L,-0.0175
7,P331C,-0.105
8,P129H,-0.193
9,H172P,-0.512
10,G201N,0.0301
11,V142H,-0.882
12,E140F,-0.353
13,H508Q,0.000578
14,S507L,-0.0301
15,I118M,-0.277
16,T455W,-0.419
17,K463C,-0.196
18,L403Q,0.0753
19,E341P,-0.0298
20,G161P,-0.919
21,A67I,-0.0242
22,S384C,-0.202
23,E275H,0.015
